Measured values published in patent US20190234935A1.

Target: mouse GFRAL (endogenous, wild type mice against Gfral-/- mice) (mouse) (UniProt Q6SJE0)
Assay: cell-based or functional assay

Chain of mouse GFRAL (endogenous, wild type mice against Gfral-/- mice) (mouse) (Q6SJE0 20-393): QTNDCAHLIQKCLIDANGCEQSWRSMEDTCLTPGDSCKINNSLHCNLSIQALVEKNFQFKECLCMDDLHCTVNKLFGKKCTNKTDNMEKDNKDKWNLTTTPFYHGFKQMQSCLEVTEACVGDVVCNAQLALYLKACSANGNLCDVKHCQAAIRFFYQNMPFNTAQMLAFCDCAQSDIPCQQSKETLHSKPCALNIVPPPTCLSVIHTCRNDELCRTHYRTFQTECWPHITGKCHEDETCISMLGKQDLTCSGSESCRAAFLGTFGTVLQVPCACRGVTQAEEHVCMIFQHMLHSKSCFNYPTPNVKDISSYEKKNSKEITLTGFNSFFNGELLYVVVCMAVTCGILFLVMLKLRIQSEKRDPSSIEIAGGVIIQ

Substance: recombinant human GDF15 (generated by Janssen BioTherapeutics) (from UniProt Q99988 197-308) (ligand)
- decrease in 12-hour food intake after a single subcutaneous administration of 16 nmol/kg: > 40%
